Twelve molecules from patent US20160185837A1 (AstraZeneca / MedImmune, published 2016) can be followed below.

What all share (test): cell-based or functional assay
For one test, the target named is human GLP-1 receptor (human, UniProt P43220 24-463).
Another test concerns the target human glucagon receptor (human, UniProt P47871 26-477).
For a further test, the target named is T1, human GIP receptor (human, UniProt P48546 22-466).
T1 sequence (looked up): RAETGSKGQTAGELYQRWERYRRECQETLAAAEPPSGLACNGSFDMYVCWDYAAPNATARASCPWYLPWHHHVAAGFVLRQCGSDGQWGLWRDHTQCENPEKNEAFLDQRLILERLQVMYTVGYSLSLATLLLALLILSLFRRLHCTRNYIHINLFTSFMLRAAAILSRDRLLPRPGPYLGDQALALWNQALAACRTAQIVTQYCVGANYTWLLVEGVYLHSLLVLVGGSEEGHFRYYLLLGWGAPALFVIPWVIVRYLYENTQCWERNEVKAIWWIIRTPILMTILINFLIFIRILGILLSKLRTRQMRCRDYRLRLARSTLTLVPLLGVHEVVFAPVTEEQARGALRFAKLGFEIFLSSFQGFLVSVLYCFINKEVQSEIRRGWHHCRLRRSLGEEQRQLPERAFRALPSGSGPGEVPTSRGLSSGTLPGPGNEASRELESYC

The target in the next test is T2, mouse GLP-1 receptor (mouse, UniProt O35659 22-463).
T2 sequence (looked up): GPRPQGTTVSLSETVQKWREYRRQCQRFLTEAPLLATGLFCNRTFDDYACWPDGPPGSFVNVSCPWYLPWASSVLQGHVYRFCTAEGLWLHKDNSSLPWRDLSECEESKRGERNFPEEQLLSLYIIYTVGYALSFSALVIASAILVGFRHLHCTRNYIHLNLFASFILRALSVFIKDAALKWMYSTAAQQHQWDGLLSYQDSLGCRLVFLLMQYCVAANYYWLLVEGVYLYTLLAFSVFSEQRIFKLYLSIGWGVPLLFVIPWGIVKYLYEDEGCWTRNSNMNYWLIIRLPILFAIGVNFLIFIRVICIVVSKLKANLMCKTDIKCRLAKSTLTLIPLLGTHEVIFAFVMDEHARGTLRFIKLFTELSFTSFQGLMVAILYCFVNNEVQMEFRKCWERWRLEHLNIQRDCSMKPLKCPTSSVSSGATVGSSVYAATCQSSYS

For another test, the target named is T3, mouse GIP receptor (mouse, UniProt Q0P543 19-460).
T3 sequence (looked up): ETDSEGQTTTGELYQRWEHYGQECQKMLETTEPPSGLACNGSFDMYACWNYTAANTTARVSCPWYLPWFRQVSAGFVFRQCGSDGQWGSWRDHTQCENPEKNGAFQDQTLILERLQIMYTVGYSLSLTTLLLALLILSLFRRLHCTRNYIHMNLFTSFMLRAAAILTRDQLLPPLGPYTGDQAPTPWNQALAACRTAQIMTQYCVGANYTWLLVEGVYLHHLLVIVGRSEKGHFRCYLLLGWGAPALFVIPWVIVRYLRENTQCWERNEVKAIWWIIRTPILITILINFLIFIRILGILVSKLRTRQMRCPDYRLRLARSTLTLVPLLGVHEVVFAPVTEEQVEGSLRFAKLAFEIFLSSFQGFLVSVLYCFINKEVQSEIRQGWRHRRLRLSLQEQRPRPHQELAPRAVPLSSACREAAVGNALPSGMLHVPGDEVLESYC

Another test deals with T4, rat GLP-1 receptor (rat, UniProt P32301 22-463).
T4 sequence (looked up): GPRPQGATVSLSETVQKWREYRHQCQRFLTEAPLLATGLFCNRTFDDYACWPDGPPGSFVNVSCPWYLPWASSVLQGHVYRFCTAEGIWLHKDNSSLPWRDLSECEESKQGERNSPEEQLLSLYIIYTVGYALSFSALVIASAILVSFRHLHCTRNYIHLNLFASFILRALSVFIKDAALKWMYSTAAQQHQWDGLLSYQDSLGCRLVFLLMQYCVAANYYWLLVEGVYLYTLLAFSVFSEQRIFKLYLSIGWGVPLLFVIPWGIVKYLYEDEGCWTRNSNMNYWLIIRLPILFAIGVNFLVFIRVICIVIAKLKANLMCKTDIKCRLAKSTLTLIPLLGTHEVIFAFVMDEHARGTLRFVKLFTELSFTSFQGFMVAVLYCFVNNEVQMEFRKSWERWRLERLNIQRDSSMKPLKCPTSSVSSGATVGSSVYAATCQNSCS

Another test concerns the target T5, rat GIP receptor (rat, UniProt P43219 19-455).
T5 sequence (looked up): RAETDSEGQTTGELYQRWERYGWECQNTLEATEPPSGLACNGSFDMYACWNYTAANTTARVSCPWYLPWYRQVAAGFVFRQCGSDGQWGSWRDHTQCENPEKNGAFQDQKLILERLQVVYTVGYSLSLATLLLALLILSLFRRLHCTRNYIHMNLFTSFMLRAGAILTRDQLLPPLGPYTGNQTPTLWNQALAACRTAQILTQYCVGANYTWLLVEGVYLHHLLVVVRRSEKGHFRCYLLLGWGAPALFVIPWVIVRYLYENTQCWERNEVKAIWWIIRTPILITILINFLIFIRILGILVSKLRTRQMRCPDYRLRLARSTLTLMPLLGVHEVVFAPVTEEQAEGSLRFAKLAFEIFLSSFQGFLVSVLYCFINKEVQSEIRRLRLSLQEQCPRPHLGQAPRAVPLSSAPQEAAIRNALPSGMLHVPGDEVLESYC

B1: IP278 (Fc fusion)
chain: YSEGTFTSDYSKLLEEEAVRLFIEWLVKGPPSSGAPPPSGGGGGSGGGGSGGGGSGGGGSATHTCPPC
Turning to B1, the “cAMP EC50” value was 0.13 nM with human GLP-1 receptor; 78 nM with human glucagon receptor; 0.011 nM with human GIP receptor; 0.32 nM with mouse GLP-1 receptor; 85 nM with mouse GIP receptor; 0.026 nM with rat GLP-1 receptor. Besides, the “cAMP EC50” value with rat GIP receptor is 0.13 nM.

B2: IP272 (Fc fusion)
chain: YSEGTFTSDYSKLLEEEAVRLFIEWLLAQKAPPGGSGSTASSGSGSATGGGGAATHTCPPC
Take B2: the “cAMP EC50” value with human GLP-1 receptor is 0.53 nM; with human glucagon receptor it was 1700 nM; with human GIP receptor, 0.011 nM; with mouse GLP-1 receptor, 2.3 nM; with mouse GIP receptor it was 11 nM; with rat GLP-1 receptor, 0.085 nM. In addition, the “cAMP EC50” value in the test with rat GIP receptor came out at 0.048 nM.

B3: IP273 (Fc fusion)
chain: YSEGTFTSDYSKLLEEEAVRLFIEWLVKGPAAAGGSGSTASSGSGSATGGGGAATHTCPPC
Regarding B3, the “cAMP EC50” value was determined as 0.1 nM with human GLP-1 receptor; 670 nM with human glucagon receptor; 0.0084 nM with human GIP receptor; 0.19 nM with mouse GLP-1 receptor; 85 nM with mouse GIP receptor; 0.02 nM with rat GLP-1 receptor. In addition, the “cAMP EC50” value with rat GIP receptor was found to be 0.09 nM.

B4: IP264 (Fc fusion)
chain: YSEGTFTSDYSKLLEEEAVRLFIEWLVKGKGGGGGSGGGGSGGGGSGGGGSATHTCPPCPAPEF
B4: the “cAMP EC50” value with human GLP-1 receptor was 0.1 nM; in the test with human glucagon receptor it was above 9800 nM; in the test with human GIP receptor, 0.017 nM; in the test with mouse GLP-1 receptor, 0.3 nM; with mouse GIP receptor, 97 nM; with rat GLP-1 receptor, 0.026 nM. Also, the “cAMP EC50” value with rat GIP receptor turned out to be 0.094 nM.

B5: IP200 (Fc fusion)
chain: YSQGTFTSDYSKILEEEAVRLFIEWLVKGPAAAGGSGSTASSGSGSATGGGGAATHTCPPCPAPEF
Consider B5, for which the “cAMP EC50” value amounted to 0.12 nM with human GLP-1 receptor, 0.11 nM with human glucagon receptor and 0.018 nM with human GIP receptor. The “cAMP EC50, Batch 2” value was found to be 0.077 nM with human GLP-1 receptor; 0.083 nM with human glucagon receptor; 0.012 nM in the test with human GIP receptor; 0.34 nM in the test with mouse GLP-1 receptor; 160 nM with mouse GIP receptor; 0.028 nM with rat GLP-1 receptor. Further, the “cAMP EC50, Batch 2” value with rat GIP receptor was found to be 0.25 nM.

B6: IP201 (Fc fusion)
chain: YSEGTFTSDYSKLLEEEAVRLFIEWLLAGPSSGAPPPSAAAGGSGSTASSGSGSATGGGGAATHTCPPCPAPEF
Take B6: the “cAMP EC50” value amounted to 0.2 nM with human GLP-1 receptor; 3.9 nM in the test with human glucagon receptor; 0.011 nM with human GIP receptor; 0.65 nM with mouse GLP-1 receptor; 4.3 nM in the test with mouse GIP receptor; 0.098 nM in the test with rat GLP-1 receptor. Moreover, in the test with rat GIP receptor, the “cAMP EC50” value was 0.23 nM. In addition, the “cAMP EC50, Batch 2” value with human GLP-1 receptor is 0.56 nM; in the test with human glucagon receptor, 11 nM; with human GIP receptor it was 0.034 nM; in the test with mouse GLP-1 receptor, 0.41 nM; with mouse GIP receptor it was 1.6 nM; with rat GLP-1 receptor it was 0.028 nM. Moreover, the “cAMP EC50, Batch 2” value with rat GIP receptor was 0.019 nM.

B7: IP253 (Fc fusion)
chain: YSEGTFTSDYSKLLDEEAVRLFIEWLLAGAPPGGSGSTASSGSGSATGGGGAATHTCPPCPAPEF
Regarding B7, the “cAMP EC50” value with human GLP-1 receptor turned out to be 0.26 nM; in the test with human glucagon receptor it was 78 nM; in the test with human GIP receptor, 0.0093 nM; in the test with mouse GLP-1 receptor it was 3.8 nM; with mouse GIP receptor, 0.61 nM; in the test with rat GLP-1 receptor, 0.21 nM. For the same molecule, in the test with rat GIP receptor, the “cAMP EC50” value worked out at 0.024 nM.

B8: IP267 (Fc fusion)
chain: YSEGTFTSDYSKLLEEEHVRLFIEWLVKGPGGGGGSGGGGSGGGGSGGGGSATHTCPPC
Turning to B8, the “cAMP EC50” value is 1.5 nM with human GLP-1 receptor; 5800 nM with human glucagon receptor; 0.12 nM with human GIP receptor; 10 nM with mouse GLP-1 receptor; above 278 nM with mouse GIP receptor; 0.3 nM in the test with rat GLP-1 receptor. The “cAMP EC50” value with rat GIP receptor worked out at 0.81 nM.

B9: IP274 (Fc fusion)
chain: YSEGTFTSDYSKLLEKEAVRLFIEWLLKGPGGGGGSGGGGSGGGGSGGGGSATHTCPPC
In the case of B9, the “cAMP EC50” value was 0.36 nM in the test with human GLP-1 receptor; 38 nM in the test with human glucagon receptor; 0.017 nM in the test with human GIP receptor; 1.2 nM with mouse GLP-1 receptor; 1 nM in the test with mouse GIP receptor; 0.057 nM in the test with rat GLP-1 receptor. Besides, the “cAMP EC50” value with rat GIP receptor amounted to 0.028 nM. Further, the results for the “cAMP EC50, Batch 2” value with human GLP-1 receptor, with human glucagon receptor and in the test with human GIP receptor were 0.2 nM, 30 nM and 0.014 nM, respectively.

B10: IP268 (Fc fusion)
chain: YSEGTFTSDYSKLLEEEAVRLFIEWLVKGPGGGGGSGGGGSGGGGSGGGGSATHTCPPC
For B10, the “cAMP EC50” value with human GLP-1 receptor is 0.12 nM; with human glucagon receptor, 2900 nM; in the test with human GIP receptor, 0.01 nM; with mouse GLP-1 receptor it was 0.28 nM; with mouse GIP receptor it was 210 nM; with rat GLP-1 receptor, 0.026 nM. Further, the “cAMP EC50” value with rat GIP receptor is 0.15 nM. Moreover, in the test with human GIP receptor, the “cAMP EC50, hGIPr (C3) line” value was determined as 3.8 nM.

B11: IP266 (Fc fusion)
chain: YSEGTFTSDYSKLLEEEAVRLFIEWLLAGAPPGGSGGGGSGGGGSGGGGSATHTCPPCPAPEF
Consider B11, for which the “cAMP EC50” value with human GLP-1 receptor amounted to 0.15 nM; with human glucagon receptor, 16 nM; with human GIP receptor, 0.012 nM; with mouse GLP-1 receptor, 0.76 nM; in the test with mouse GIP receptor it was 0.3 nM; with rat GLP-1 receptor, 0.3 nM. Besides, the “cAMP EC50” value with rat GIP receptor came to 0.038 nM.

B12: IP276 (Fc fusion)
chain: YSEGTFTSDYSKLLEEEAVRLFIEWLVKGPGGGGGGGGGGGGGGGGGATHTCPPC
In the case of B12, the “cAMP EC50” value with human GLP-1 receptor was found to be 0.16 nM; in the test with human glucagon receptor, 1500 nM; with human GIP receptor it was 0.013 nM; with mouse GLP-1 receptor, 0.34 nM; with mouse GIP receptor it was 510 nM; with rat GLP-1 receptor, 0.028 nM. Further, the “cAMP EC50” value with rat GIP receptor was determined as 0.26 nM.
